Results on 2 sequences are retold here after PMC3239198.

Like-named read-outs stand apart in the source and are kept apart here.

The target in data set [1] is His-tagged TetR (Tet repressor) (UniProt P04483). The experiment in a line: competition EMSA. For orientation: A gel shift assay detects complexes by their altered migration in electrophoresis.
The target is the same in data set [2]. The experiment in a line: competition EMSA. The source holds these as a separate data set.
Data set [3] shares this target. The data set is described as follows: EMSA.

Sequence of His-tagged TetR (Tet repressor) (P04483 whole entry): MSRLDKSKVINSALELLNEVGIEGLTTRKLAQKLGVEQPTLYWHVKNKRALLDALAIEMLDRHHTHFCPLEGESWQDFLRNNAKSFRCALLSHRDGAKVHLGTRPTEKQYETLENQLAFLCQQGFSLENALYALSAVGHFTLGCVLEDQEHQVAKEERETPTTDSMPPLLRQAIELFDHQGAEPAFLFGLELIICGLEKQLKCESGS

For “GGGAGAUACGCGUAUCAAGCAGCAUGUUAUGGGUCAUCACAGACCAGAGAAAAGCUUGAUACGCGAAAGGAG [TetR aptamer 12-1R (pDA1), active]”, the Ki in data set [1] is 0.076 µM; in data set [2] it was 0.058 µM.

For “TTGACACTCTATCATTGATAGAGTTAT (double strand) [tetO dsDNA (ODA68/ODA69)]”, in data set [3], the Kd is 0.06 µM.

The Ki is the equilibrium dissociation constant of an inhibitor or competing ligand from its target. A lower Ki goes with higher affinity. As a reminder, the Kd is the equilibrium constant for the complex coming apart.
